This passage reports IC50, neutralization of VSV pseudotyped to display EBOV GP results from US20240109954A1.

The test deals with EBOV GP displayed on vesicular stomatitis virus (VSV) pseudovirions (Ebola virus) (UniProt Q05320). The test can be described thus: cell-based or functional assay.
EBOV GP displayed on vesicular stomatitis virus (VSV) pseudovirions (Ebola virus), sequence (Q05320 33-676 limits assumed): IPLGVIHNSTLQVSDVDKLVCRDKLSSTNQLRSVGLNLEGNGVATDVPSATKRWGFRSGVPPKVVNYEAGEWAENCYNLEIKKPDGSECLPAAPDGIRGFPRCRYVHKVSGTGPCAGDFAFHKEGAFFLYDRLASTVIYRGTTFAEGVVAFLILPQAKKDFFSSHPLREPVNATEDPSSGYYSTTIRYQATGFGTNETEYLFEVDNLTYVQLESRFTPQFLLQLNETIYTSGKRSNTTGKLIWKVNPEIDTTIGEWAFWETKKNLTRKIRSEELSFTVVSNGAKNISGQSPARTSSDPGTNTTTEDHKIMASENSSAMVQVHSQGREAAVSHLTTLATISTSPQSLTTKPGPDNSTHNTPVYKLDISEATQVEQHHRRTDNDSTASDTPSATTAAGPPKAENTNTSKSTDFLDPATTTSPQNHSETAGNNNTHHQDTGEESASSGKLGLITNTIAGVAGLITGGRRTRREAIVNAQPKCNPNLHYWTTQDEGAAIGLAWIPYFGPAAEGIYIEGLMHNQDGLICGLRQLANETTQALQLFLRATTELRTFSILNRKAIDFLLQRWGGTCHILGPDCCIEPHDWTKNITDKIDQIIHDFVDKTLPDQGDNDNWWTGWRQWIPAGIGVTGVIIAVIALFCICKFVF

KZ52 (antibody) gave an IC50, neutralization of VSV pseudotyped to display EBOV GP of 0.08 µg/mL.
